Starred links: 1 amine or outer side, 2 acyl side, 3 side chain; linkers in the order of their positions; H or OH if unused. Non-standard residues stand in square brackets, D forms with d. Groups on a side chain read outwards from the residue. No end group written: not given here. *: point of attachment. C20 diacid = O=C(O)CCCCCCCCCCCCCCCCCCC(=O)*; γGlu = O=C(O)[C@H](CCC(=O)[*:2])N[*:1]; 4Pal = N[C@@H](Cc1ccncc1)C(=O)O; αMeL = CC(C)C[C@](C)(N)C(=O)O; AEEA = NCCOCCOCC(=O)O; Aib = CC(C)(N)C(=O)O
T1: human glucose-dependent insulinotropic peptide receptor (human, UniProt P48546 22-466)
T1 sequence (looked up): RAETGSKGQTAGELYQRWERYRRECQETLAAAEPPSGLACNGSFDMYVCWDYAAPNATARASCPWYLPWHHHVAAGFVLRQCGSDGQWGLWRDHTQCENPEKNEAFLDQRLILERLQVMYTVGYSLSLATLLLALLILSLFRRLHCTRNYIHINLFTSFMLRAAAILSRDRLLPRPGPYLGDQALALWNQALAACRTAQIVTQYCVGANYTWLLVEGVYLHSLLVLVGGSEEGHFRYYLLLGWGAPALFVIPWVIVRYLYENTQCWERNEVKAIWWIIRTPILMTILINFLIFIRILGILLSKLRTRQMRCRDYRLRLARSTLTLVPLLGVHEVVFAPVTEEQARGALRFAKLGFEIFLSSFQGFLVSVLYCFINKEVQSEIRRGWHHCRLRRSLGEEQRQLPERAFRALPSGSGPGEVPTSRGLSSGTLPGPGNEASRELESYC

B1: Example 73 (peptide)
peptide: Y[Aib]EGTLISDYSI[αMeL]LDKK([AEEA-AEEA-γGlu-C20 diacid])HQ[Aib]EFVEYLLEGGPSSGAPPPS-NH2
modifications: N-terminus assumed
SMILES: CC[C@H](C)[C@H](NC(=O)[C@H](CC(C)C)NC(=O)[C@@H](NC(=O)CNC(=O)[C@H](CCC(=O)O)NC(=O)C(C)(C)NC(=O)[C@@H](N)Cc1ccc(O)cc1)[C@@H](C)O)C(=O)N[C@@H](CO)C(=O)N[C@@H](CC(=O)O)C(=O)N[C@@H](Cc1ccc(O)cc1)C(=O)N[C@@H](CO)C(=O)N[C@H](C(=O)N[C@@](C)(CC(C)C)C(=O)N[C@@H](CC(C)C)C(=O)N[C@@H](CC(=O)O)C(=O)N[C@@H](CCCCN)C(=O)N[C@@H](CCCCNC(=O)COCCOCCNC(=O)COCCOCCNC(=O)CC[C@H](NC(=O)CCCCCCCCCCCCCCCCCCC(=O)O)C(=O)O)C(=O)N[C@@H](Cc1c[nH]cn1)C(=O)N[C@@H](CCC(N)=O)C(=O)NC(C)(C)C(=O)N[C@@H](CCC(=O)O)C(=O)N[C@@H](Cc1ccccc1)C(=O)N[C@H](C(=O)N[C@@H](CCC(=O)O)C(=O)N[C@@H](Cc1ccc(O)cc1)C(=O)N[C@@H](CC(C)C)C(=O)N[C@@H](CC(C)C)C(=O)N[C@@H](CCC(=O)O)C(=O)NCC(=O)NCC(=O)N1CCC[C@H]1C(=O)N[C@@H](CO)C(=O)N[C@@H](CO)C(=O)NCC(=O)N[C@@H](C)C(=O)N1CCC[C@H]1C(=O)N1CCC[C@H]1C(=O)N1CCC[C@H]1C(=O)N[C@@H](CO)C(N)=O)C(C)C)[C@@H](C)CC
B2: Example 72 (peptide)
peptide: Y[Aib]EGTLISDYSI[αMeL]LDKK([AEEA-AEEA-γGlu-C20 diacid])HQ[Aib]EFVEYLLETGPSSGAPPPS-NH2
modifications: N-terminus assumed
SMILES: CC[C@H](C)[C@H](NC(=O)[C@H](CC(C)C)NC(=O)[C@@H](NC(=O)CNC(=O)[C@H](CCC(=O)O)NC(=O)C(C)(C)NC(=O)[C@@H](N)Cc1ccc(O)cc1)[C@@H](C)O)C(=O)N[C@@H](CO)C(=O)N[C@@H](CC(=O)O)C(=O)N[C@@H](Cc1ccc(O)cc1)C(=O)N[C@@H](CO)C(=O)N[C@H](C(=O)N[C@@](C)(CC(C)C)C(=O)N[C@@H](CC(C)C)C(=O)N[C@@H](CC(=O)O)C(=O)N[C@@H](CCCCN)C(=O)N[C@@H](CCCCNC(=O)COCCOCCNC(=O)COCCOCCNC(=O)CC[C@H](NC(=O)CCCCCCCCCCCCCCCCCCC(=O)O)C(=O)O)C(=O)N[C@@H](Cc1c[nH]cn1)C(=O)N[C@@H](CCC(N)=O)C(=O)NC(C)(C)C(=O)N[C@@H](CCC(=O)O)C(=O)N[C@@H](Cc1ccccc1)C(=O)N[C@H](C(=O)N[C@@H](CCC(=O)O)C(=O)N[C@@H](Cc1ccc(O)cc1)C(=O)N[C@@H](CC(C)C)C(=O)N[C@@H](CC(C)C)C(=O)N[C@@H](CCC(=O)O)C(=O)N[C@H](C(=O)NCC(=O)N1CCC[C@H]1C(=O)N[C@@H](CO)C(=O)N[C@@H](CO)C(=O)NCC(=O)N[C@@H](C)C(=O)N1CCC[C@H]1C(=O)N1CCC[C@H]1C(=O)N1CCC[C@H]1C(=O)N[C@@H](CO)C(N)=O)[C@@H](C)O)C(C)C)[C@@H](C)CC
B3: Example 70 (peptide)
peptide: Y[Aib]EGTFISDYSI[αMeL]LDKK([AEEA-AEEA-γGlu-C20 diacid])HQ[Aib]DFVE[4Pal]LLATGPSSGAPPPS-NH2
modifications: N-terminus assumed
SMILES: CC[C@H](C)[C@H](NC(=O)[C@H](Cc1ccccc1)NC(=O)[C@@H](NC(=O)CNC(=O)[C@H](CCC(=O)O)NC(=O)C(C)(C)NC(=O)[C@@H](N)Cc1ccc(O)cc1)[C@@H](C)O)C(=O)N[C@@H](CO)C(=O)N[C@@H](CC(=O)O)C(=O)N[C@@H](Cc1ccc(O)cc1)C(=O)N[C@@H](CO)C(=O)N[C@H](C(=O)N[C@@](C)(CC(C)C)C(=O)N[C@@H](CC(C)C)C(=O)N[C@@H](CC(=O)O)C(=O)N[C@@H](CCCCN)C(=O)N[C@@H](CCCCNC(=O)COCCOCCNC(=O)COCCOCCNC(=O)CC[C@H](NC(=O)CCCCCCCCCCCCCCCCCCC(=O)O)C(=O)O)C(=O)N[C@@H](Cc1c[nH]cn1)C(=O)N[C@@H](CCC(N)=O)C(=O)NC(C)(C)C(=O)N[C@@H](CC(=O)O)C(=O)N[C@@H](Cc1ccccc1)C(=O)N[C@H](C(=O)N[C@@H](CCC(=O)O)C(=O)N[C@@H](Cc1ccncc1)C(=O)N[C@@H](CC(C)C)C(=O)N[C@@H](CC(C)C)C(=O)N[C@@H](C)C(=O)N[C@H](C(=O)NCC(=O)N1CCC[C@H]1C(=O)N[C@@H](CO)C(=O)N[C@@H](CO)C(=O)NCC(=O)N[C@@H](C)C(=O)N1CCC[C@H]1C(=O)N1CCC[C@H]1C(=O)N1CCC[C@H]1C(=O)N[C@@H](CO)C(N)=O)[C@@H](C)O)C(C)C)[C@@H](C)CC
B4: Example 74 (peptide)
peptide: YXEGTXISDYSIXLDKKHQXDFVEXLLEGGPSSGAPPPS
modifications: Aib2; Iva6; αMeL13; K17((2-[2-(2-Amino-ethoxy)-ethoxy]-acetyl)2-(γ-Glu)-CO-(CH2)18-CO2H); Aib20; 4-Pal25; C-terminal amide
B5: Example 77 (peptide)
peptide: YXEGTXISDYSIXLDXKHQXDFVEXLLETGPSSGAPPPS
modifications: Aib2; Iva6; αMeL13; Orn16; K17((2-[2-(2-Amino-ethoxy)-ethoxy]-acetyl)2-(γ-Glu)-CO-(CH2)18-CO2H); Aib20; 4-Pal25; C-terminal amide
B6: Example 76 (peptide)
peptide: YXEGTXISDYSIXLDXKHQXDFVEXLLEGGPSSGAPPPS
modifications: Aib2; Iva6; αMeL13; Orn16; K17((2-[2-(2-Amino-ethoxy)-ethoxy]-acetyl)2-(γ-Glu)-CO-(CH2)18-CO2H); Aib20; 4-Pal25; C-terminal amide
B7: Example 75 (peptide)
peptide: YXEGTXISDYSIXLDKKHQXDFVEXLLETGPSSGAPPPS
modifications: Aib2; Iva6; αMeL13; K17((2-[2-(2-Amino-ethoxy)-ethoxy]-acetyl)2-(γ-Glu)-CO-(CH2)18-CO2H); Aib20; 4-Pal25; C-terminal amide
B8: Example 78 (peptide)
peptide: Y[Aib]EGTFISDYSI[αMeL]LDKK([AEEA-AEEA-γGlu-C20 diacid])HQ[Aib]DFVE[4Pal]LLAAGPSSGAPPPS-NH2
modifications: N-terminus assumed
SMILES: CC[C@H](C)[C@H](NC(=O)[C@H](Cc1ccccc1)NC(=O)[C@@H](NC(=O)CNC(=O)[C@H](CCC(=O)O)NC(=O)C(C)(C)NC(=O)[C@@H](N)Cc1ccc(O)cc1)[C@@H](C)O)C(=O)N[C@@H](CO)C(=O)N[C@@H](CC(=O)O)C(=O)N[C@@H](Cc1ccc(O)cc1)C(=O)N[C@@H](CO)C(=O)N[C@H](C(=O)N[C@@](C)(CC(C)C)C(=O)N[C@@H](CC(C)C)C(=O)N[C@@H](CC(=O)O)C(=O)N[C@@H](CCCCN)C(=O)N[C@@H](CCCCNC(=O)COCCOCCNC(=O)COCCOCCNC(=O)CC[C@H](NC(=O)CCCCCCCCCCCCCCCCCCC(=O)O)C(=O)O)C(=O)N[C@@H](Cc1c[nH]cn1)C(=O)N[C@@H](CCC(N)=O)C(=O)NC(C)(C)C(=O)N[C@@H](CC(=O)O)C(=O)N[C@@H](Cc1ccccc1)C(=O)N[C@H](C(=O)N[C@@H](CCC(=O)O)C(=O)N[C@@H](Cc1ccncc1)C(=O)N[C@@H](CC(C)C)C(=O)N[C@@H](CC(C)C)C(=O)N[C@@H](C)C(=O)N[C@@H](C)C(=O)NCC(=O)N1CCC[C@H]1C(=O)N[C@@H](CO)C(=O)N[C@@H](CO)C(=O)NCC(=O)N[C@@H](C)C(=O)N1CCC[C@H]1C(=O)N1CCC[C@H]1C(=O)N1CCC[C@H]1C(=O)N[C@@H](CO)C(N)=O)C(C)C)[C@@H](C)CC
B9: Example 71 (peptide)
peptide: Y[Aib]EGTFISDYSI[αMeL]LDKK([AEEA-AEEA-γGlu-C20 diacid])HQ[Aib]DFVEWLLETGPSSGAPPPS-NH2
modifications: N-terminus assumed
SMILES: CC[C@H](C)[C@H](NC(=O)[C@H](Cc1ccccc1)NC(=O)[C@@H](NC(=O)CNC(=O)[C@H](CCC(=O)O)NC(=O)C(C)(C)NC(=O)[C@@H](N)Cc1ccc(O)cc1)[C@@H](C)O)C(=O)N[C@@H](CO)C(=O)N[C@@H](CC(=O)O)C(=O)N[C@@H](Cc1ccc(O)cc1)C(=O)N[C@@H](CO)C(=O)N[C@H](C(=O)N[C@@](C)(CC(C)C)C(=O)N[C@@H](CC(C)C)C(=O)N[C@@H](CC(=O)O)C(=O)N[C@@H](CCCCN)C(=O)N[C@@H](CCCCNC(=O)COCCOCCNC(=O)COCCOCCNC(=O)CC[C@H](NC(=O)CCCCCCCCCCCCCCCCCCC(=O)O)C(=O)O)C(=O)N[C@@H](Cc1c[nH]cn1)C(=O)N[C@@H](CCC(N)=O)C(=O)NC(C)(C)C(=O)N[C@@H](CC(=O)O)C(=O)N[C@@H](Cc1ccccc1)C(=O)N[C@H](C(=O)N[C@@H](CCC(=O)O)C(=O)N[C@@H](Cc1c[nH]c2ccccc12)C(=O)N[C@@H](CC(C)C)C(=O)N[C@@H](CC(C)C)C(=O)N[C@@H](CCC(=O)O)C(=O)N[C@H](C(=O)NCC(=O)N1CCC[C@H]1C(=O)N[C@@H](CO)C(=O)N[C@@H](CO)C(=O)NCC(=O)N[C@@H](C)C(=O)N1CCC[C@H]1C(=O)N1CCC[C@H]1C(=O)N1CCC[C@H]1C(=O)N[C@@H](CO)C(N)=O)[C@@H](C)O)C(C)C)[C@@H](C)CC

Columns and labels:
Assay in all cases: cell-based or functional assay
[1] = molecular target: human GLP-1 receptor (human, UniProt P43220 24-463)
[2] = molecular target: human glucagon receptor (human, UniProt P47871 26-477)
[3] = molecular target: T1, human glucose-dependent insulinotropic …

Chain of human glucagon receptor (P47871 26-477): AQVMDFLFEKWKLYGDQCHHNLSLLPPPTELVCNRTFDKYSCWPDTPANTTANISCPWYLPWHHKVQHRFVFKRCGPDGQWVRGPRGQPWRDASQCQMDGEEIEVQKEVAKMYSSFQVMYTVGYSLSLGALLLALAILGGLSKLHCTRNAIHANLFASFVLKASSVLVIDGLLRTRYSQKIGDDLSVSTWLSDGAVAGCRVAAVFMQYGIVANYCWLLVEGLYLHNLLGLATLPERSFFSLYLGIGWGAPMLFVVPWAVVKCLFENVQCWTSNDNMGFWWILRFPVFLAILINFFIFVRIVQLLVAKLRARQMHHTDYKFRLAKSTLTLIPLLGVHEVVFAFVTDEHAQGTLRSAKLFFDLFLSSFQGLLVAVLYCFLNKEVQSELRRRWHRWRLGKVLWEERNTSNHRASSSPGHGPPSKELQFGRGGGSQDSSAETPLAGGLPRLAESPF

Binder | hGLP1R cAMP Rel EC50 [1] [nM] | hGcgR cAMP Rel EC50 [2] [nM] | hGIPR cAMP Rel EC50 [3] [nM]
B1 | > 5000 | > 5000 | 0.0151
B2 | > 5000 | > 5000 | 0.0182
B3 | > 5000 | 3560 | 0.0254
B4 | > 5000 | 627 | 0.0167
B5 | > 5000 | 2660 | 0.0265
B6 | > 5000 | 1200 | 0.0154
B7 | > 5000 | 2170 | 0.0182
B8 | > 5000 | 3000 | 0.0125
B9 | > 5000 | 581 | 0.0721
